{
  "source": "patent US8501695B2",
  "about": "“Tissue kallikrein for the treatment of diseases associated with amyloid protein” (DiaMedica, Inc., priority 2007, dated 2013)",
  "molecules": {"B1": {"name": "tissue kallikrein: serine protease that cleaves kininogen into kallidin; polypeptide SEQ ID NO:1 (Sus scrofa kallikrein 1), KLK1 from Sigma (protein, listed as Sus scrofa)", "chain": "MWSLVMRLALSLAGTGAAPPIQSRIIGGRECEKDSHPWQVAIYHYSSFQCGGVLVDPKWVLTAAHCKNDNYQVWLGRHNLFENEVTAQFFGVTADFPHPGFNLSLLKNHTKADGKDYSHDLMLLRLQSPAKITDAVKVLELPTQEPELGSTCQASGWGSIEPGPDDFEFPDEIQCVELTLLQNTFCADAHPDKVTESMLCAGYLPGGKDTCMGDSGGPLICNGMWQGITSWGHTPCGSANKPSIYTKLIFYLDWINDTITENP", "modifications": "125I label in one form"}},
  "key": {"[1]": {"tested_on": "rat mixed cortical cultures (RMCC)", "assay": "Aβ1-42 toxicity in rat mixed cortical cultures, LDH measurement", "type": "cell-based", "protocol": "(§1) Whether pre-treatment with tissue kallikrein protects rat mixed cortical cultures against exposure to human amyloid beta peptide (Aβ1-42) was investigated. Cell death was analyzed by LDH-release, an indication of necrosis, and cell viability was also analyzed by neuronal cell count. First (Study Arm A), tissue kallikrein was added to the cells only prior to the Aβ1-42 insult (at −24 h and at −30 min). Whereas in the second part (Study Arm B), tissue kallikrein was added to the cells prior to (−30 min) and also at +24 h after the Aβ1-42 insult. At the +24 h time point, cell culture media were not changed (tissue kallikrein or corresponding amount of vehicle was added to the wells), whereas at −24 h and −30 min time point cell culture media were changed.\n(§2) […] Cell Culture. Mixed cortical cultures were prepared from E18 Wistar rat embryos (National Animal Center, Kuopio, Finland). The cortices were dissected out, and the tissue cut to small pieces. The cells were separated by 15-min incubation with DNase and papain. The cells were collected by centrifugation (1500 rpm, 5 min). The tissue was triturated with a pipette and the cells were plated on poly-L-lysine-coated 48-well plates, 300,000 cells/cm^2, in MEM (2 g/L glucose) supplemented with 2 mM glutamine, 0.1 μg/ml gentamicin, 10% heat-inactivated fetal bovine serum (FBS-HI) and 10% heat-inactivated horse serum (HS-HI). After 3-4 h, the media were changed to MEM (2 g/L glucose) supplemented with 2 mM glutamine, 0.1 μg/ml gentamicin, 5% HS-HI. After three days in vitro, media containing MEM (2 g/L glucose) supplemented with glutamine, gentamicin, and 5% of both sera were changed to the cells. On day 6 in vitro, the unwanted cell division was inhibited by adding cytosine arabinoside (10 μM final concentration) for 24 h. The cultures were refed with MEM (2 g/L glucose) supplemented with glutamine, gentamicin, and 5% HS-HI before experiments.\n(§3) Aβ1-42 Exposure. Tissue kallikrein (SEQ ID NO:1) was dissolved and further diluted in MEM supplemented with glucose, glutamine, gentamicin, and 5% HS-HI. As a control for total neuronal death, 300 μM N-methyl-D-aspartic acid (NMDA) for 48 h was used, and 10 μM Aβ1-42 for 48 h was used to induce approximately 30-50% cell death. Wells treated with media only served as 0-control. Tissue kallikrein or vehicle was pipetted to the cells −24 h and −30 min before adding 10 μM Aβ1-42 (final concentration). Tissue kallikrein or vehicle was again pipetted to the cells at +24 h after exposure.\nLDH Measurement. After 48 h, the culture media of all wells were collected, and possible cell debris was removed by centrifugation (13,000 rpm for 3 min). A 100 μl aliquot was pipetted into a microtiter plate as duplicates, and equal amount of LDH reagent was pipetted to the wells. The absorbance at 340 nm was measured immediately using a 3 min kinetic measurement protocol in Multiskan ELISA reader (Labsystems, Finland). The change in absorbance/min was determined, which was directly proportional to the released LDH. The remaining supernatant (50 μl) was snap-frozen in dry ice for storage.\n(§4) Data Analysis. The number of wells per compound concentration used was 6 (n=6). Five concentrations of Tissue kallikrein were studied (0.001, 0.01, 0.1, 1, 10 μg/ml) in both study arms. Statistical analysis was performed using StatsDirect statistical software. The values were analyzed by one-way ANOVA followed by Dunnet's test (comparison to the vehicle-treated group). Results are presented as mean±standard deviation (SD) and differences are considered to be statistically significant at the P<0.05 level."}, "[2]": {"tested_on": "rat mixed cortical cultures (RMCC)", "assay": "Aβ1-42 toxicity in rat mixed cortical cultures, neuronal survival (NeuN cell count)", "type": "cell-based", "protocol": "as §1, §2, §3\nImmunocytochemistry for Neuronal Survival. For neuronal counts, the cultures were fixed with 4% paraformaldehyde in 0.01 M PBS for 30 min and washed twice with PBS. The fixed cells were first permeabilized, and non-specific binding blocked by 30 min incubation with blocking buffer containing 1% bovine serum albumin and 0.3% Triton® X-100 in PBS. Anti-neuronal nuclei antibody (anti-NeuN, dilution 1:500, Chemicon, Temecula, Calif.) was used as the primary antibody. The cells were incubated with the primary antibody for 48 h, followed by incubation with a biotinylated secondary antibody (1:200, Vector Labs) for 2 h, and the avidin-biotin-peroxidase complex (ABC-reagent, 1:200, Vector ABC Elite Kit, Vector Labs) for 2 h. The positive cells were visualized using Ni-enhanced DAB as a substrate (DAB Substrate kit, Vector Labs). The NeuN immunopositive neurons were counted using a light microscope. Altogether, 2 fields of each well were counted. The results are shown as percent viable neurons.\nas §4, with “Five concentrations of Tissue kallikrein were studied (0.001, 0.01, 0.1, 1, 10 μg/ml) in both study arms.” left out"}, "[3]": {"biological_target": "T1, Amyloid beta1-42 (hAPβ42 peptide) (Homo sapiens, UniProt P05067)", "T1 construct": "Amyloid beta1-42 standard (from β-Amyloid1-42 ELISA, Human kit, Sigma BE0200); purchased Sigma BE0200", "T1 sequence (P05067 672-713 limits assumed)": "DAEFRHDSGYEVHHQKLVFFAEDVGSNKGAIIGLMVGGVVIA", "assay": "Direct cleavage of amyloid beta, β-Amyloid1-42 ELISA", "type": "biochemical", "protocol": "Amyloid beta1-42 standard (from β-Amyloid1-42 ELISA, Human kit, Sigma BE0200) was reconstituted into 1.0 μg/mL as per kit instructions. A stock solution of tissue kallikrein (SEQ ID: 1) and approximately 0.5 molar equivalents of Soybean Trypsin Inhibitor (Sigma, T6522) was prepared in PBS and serially diluted in triplicate with a fixed concentration of hAPβ42 peptide at 500 pg/mL. Solutions were incubated for 3 and 18 hours respectively after which time additional protease inhibitors were added (1/100 dilution of protease inhibitor cocktail solution, Sigma P8340). As per kit instructions, 50 μL of the above samples were added and the ELISA plate incubated overnight at 4° C. The remaining steps of the ELISA plate development were followed as per kit instructions and then read using a multiwell ELISA plate reader at 450 nm. Percent cleavage was determined by: 100−[(Ave KLK1−Ave Blank)/(Ave Control−Ave Blank)×100]=% Cleavage Results"}},
  "data": [
    {"molecule": "B1", "values": [
      {"measurement": "LDH release following Aβ1-42 insult", "setting": "[1]; 10 μg/ml, Study Arms A, B and C (all three treatment arms), FIG. 7", "value": "statistically significant reduction of LDH release"},
      {"measurement": "LDH release following Aβ1-42 insult", "setting": "[1]; Study Arm A (-24 h and -30 min), 10 μg/ml, 10 μM Aβ1-42", "value": "significantly reduced LDH release"},
      {"measurement": "LDH release following Aβ1-42 insult", "setting": "[1]; Study Arm A (-24 h and -30 min), 0.001, 0.01, 0.1 and 1.0 μg/ml, 10 μM Aβ1-42", "value": "did not alter LDH release"},
      {"measurement": "LDH release following Aβ1-42 insult", "setting": "[1]; Study Arm B (-30 min and +24 h), 1.0 μg/ml", "value": "reduced LDH release"},
      {"measurement": "LDH release following Aβ1-42 insult", "setting": "[1]; Study Arm B (-30 min and +24 h), 10 μg/ml", "value": "statistically significant reduction of LDH release"},
      {"measurement": "LDH release following Aβ1-42 insult", "setting": "[1]; Study Arm B (-30 min and +24 h), 0.001, 0.01 and 0.1 μg/ml, 10 μM Aβ1-42", "value": "did not alter LDH release"},
      {"measurement": "cell counts (survival) after Aβ1-42 insult", "setting": "[2]; Study Arm A, 1.0 μg/ml", "value": "provided protection"},
      {"measurement": "cell counts (survival) after Aβ1-42 insult", "setting": "[2]; Study Arm A, 10 μg/ml", "value": "protection provided by 10 μg/ml was statistically significant"},
      {"measurement": "cell counts (survival) after Aβ1-42 insult", "setting": "[2]; Study Arm A, lower concentrations", "value": "did not affect cell counts"},
      {"measurement": "cell counts (survival) after Aβ1-42 insult", "setting": "[2]; Study Arm B, 1.0 μg/ml", "value": "Increases in cell counts"},
      {"measurement": "cell counts (survival) after Aβ1-42 insult", "setting": "[2]; Study Arm B, 10 μg/ml", "value": "protection provided by 10 μg/ml was statistically significant"},
      {"measurement": "cell counts (survival) after Aβ1-42 insult", "setting": "[2]; Study Arm B, lower concentrations", "value": "did not affect cell counts"},
      {"measurement": "Percent Cleavage of Amyloid Beta", "setting": "[3]; KLK1 1 pg/mL, 3 hrs", "value": 0, "unit": "%"},
      {"measurement": "Percent Cleavage of Amyloid Beta", "setting": "[3]; KLK1 1 pg/mL, 18 hrs", "value": 0, "unit": "%"},
      {"measurement": "Percent Cleavage of Amyloid Beta", "setting": "[3]; KLK1 10 pg/mL, 3 hrs", "value": 0, "unit": "%"},
      {"measurement": "Percent Cleavage of Amyloid Beta", "setting": "[3]; KLK1 10 pg/mL, 18 hrs", "value": 15, "unit": "%"},
      {"measurement": "Percent Cleavage of Amyloid Beta", "setting": "[3]; KLK1 100 pg/mL, 3 hrs", "value": 0, "unit": "%"},
      {"measurement": "Percent Cleavage of Amyloid Beta", "setting": "[3]; KLK1 100 pg/mL, 18 hrs", "value": 19.5, "unit": "%"},
      {"measurement": "Percent Cleavage of Amyloid Beta", "setting": "[3]; KLK1 1 ng/mL, 3 hrs", "value": 19.6, "unit": "%"},
      {"measurement": "Percent Cleavage of Amyloid Beta", "setting": "[3]; KLK1 1 ng/mL, 18 hrs", "value": 50, "unit": "%"},
      {"measurement": "Percent Cleavage of Amyloid Beta", "setting": "[3]; KLK1 10 ng/mL, 3 hrs", "value": 36.6, "unit": "%"},
      {"measurement": "Percent Cleavage of Amyloid Beta", "setting": "[3]; KLK1 10 ng/mL, 18 hrs", "value": 88.4, "unit": "%"},
      {"measurement": "Percent Cleavage of Amyloid Beta", "setting": "[3]; KLK1 100 ng/mL, 3 hrs", "value": 71.7, "unit": "%"},
      {"measurement": "Percent Cleavage of Amyloid Beta", "setting": "[3]; KLK1 100 ng/mL, 18 hrs", "value": 99.8, "unit": "%"},
      {"measurement": "Percent Cleavage of Amyloid Beta", "setting": "[3]; KLK1 1 μg/mL, 3 hrs", "value": 92.1, "unit": "%"},
      {"measurement": "Percent Cleavage of Amyloid Beta", "setting": "[3]; KLK1 1 μg/mL, 18 hrs", "value": 100, "unit": "%"}
    ]}
  ]
}
